Experimental findings from patent US20160168268A1 (University of California, published 2016) are described below.

In this experiment the target is T1, human IgE (human, UniProt P01854-1 1-428, FITC label in the BMMC experiments).
T1 construct: also called standard IgE; myeloma IgE
Kind of experiment: method not stated.

What is called Kd is the equilibrium constant for the complex coming apart. High values mean lower affinity, low ones higher affinity.

T1 sequence (P01854 other isoform, or with tags, fused parts or gaps): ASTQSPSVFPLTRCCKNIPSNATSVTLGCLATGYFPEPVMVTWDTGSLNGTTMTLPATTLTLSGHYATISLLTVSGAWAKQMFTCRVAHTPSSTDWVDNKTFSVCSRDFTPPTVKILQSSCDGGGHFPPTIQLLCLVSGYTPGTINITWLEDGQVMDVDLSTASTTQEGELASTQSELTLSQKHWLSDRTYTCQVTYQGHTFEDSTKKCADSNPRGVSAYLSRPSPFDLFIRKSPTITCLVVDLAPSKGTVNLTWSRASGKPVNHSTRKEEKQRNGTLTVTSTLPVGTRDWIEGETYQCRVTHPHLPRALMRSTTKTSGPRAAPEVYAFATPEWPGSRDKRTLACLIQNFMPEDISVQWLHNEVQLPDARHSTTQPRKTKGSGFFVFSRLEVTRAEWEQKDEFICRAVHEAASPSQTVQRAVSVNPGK

B1: monoclonal anti-human IgE antibody P6.2 (antibody, V domains shown)
VH: QVQLQQSGAELVRPGTSVKVSCKASGYAFTNYLIEWVKQRPGQGLEWIGVINPGSGFTKYNEKFKGKATLTADKSSSTAYMHLSSLTSDDSAVYFCAREDVYSWFAYWGQGTLVTVSA
VL: DIVLTQSPASLAVSLGQRATISCRASESVDSYGNSFMHWYQQKPGQPPKLLIYRTSNLESGIPARFSGSGSRTDFTLTINPVEADDVATYFCQQSYEDPFTFGSGTKLEIK
notes: also called mAb P6.2; mAb 6.2
B1 gave a dissociation constant (Kd) of 2.54 µM.
